Starred links: 1 amine or outer side, 2 acyl side, 3 side chain; linkers in the order of their positions; H or OH if unused. Non-standard residues stand in square brackets, D forms with d. Groups on a side chain read outwards from the residue. No end group written: not given here. *: point of attachment. C18 diacid = O=C(O)CCCCCCCCCCCCCCCCC(=O)*; γGlu = O=C(O)[C@H](CCC(=O)[*:2])N[*:1]; εLys = N[C@@H](CCCCN[*:1])C(=O)[*:2]; AEEA = NCCOCCOCC(=O)O; Aib = CC(C)(N)C(=O)O
Key:
Assay in all cases: cell-based or functional assay
[1] = target: human GLP-1 receptor (human, UniProt P43220 24-463)
[2] = target: T1, human GIP receptor (human, UniProt P48546 22-466)
T1 sequence (looked up): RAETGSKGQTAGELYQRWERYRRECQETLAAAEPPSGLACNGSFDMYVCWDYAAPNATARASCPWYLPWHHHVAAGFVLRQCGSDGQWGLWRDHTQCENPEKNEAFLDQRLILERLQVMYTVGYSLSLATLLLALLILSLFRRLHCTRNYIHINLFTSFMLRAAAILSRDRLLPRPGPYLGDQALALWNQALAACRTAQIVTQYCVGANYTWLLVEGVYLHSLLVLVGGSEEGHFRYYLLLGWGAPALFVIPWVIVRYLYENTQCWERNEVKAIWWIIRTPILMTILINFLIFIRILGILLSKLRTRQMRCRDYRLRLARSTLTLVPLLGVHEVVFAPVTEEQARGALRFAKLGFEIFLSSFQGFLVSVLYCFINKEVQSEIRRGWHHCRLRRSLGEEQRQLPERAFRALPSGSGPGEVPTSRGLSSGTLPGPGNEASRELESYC

[3] = target: T2, human neuropeptide Y2 receptor (human, UniProt P49146 1-381)
T2 sequence (looked up): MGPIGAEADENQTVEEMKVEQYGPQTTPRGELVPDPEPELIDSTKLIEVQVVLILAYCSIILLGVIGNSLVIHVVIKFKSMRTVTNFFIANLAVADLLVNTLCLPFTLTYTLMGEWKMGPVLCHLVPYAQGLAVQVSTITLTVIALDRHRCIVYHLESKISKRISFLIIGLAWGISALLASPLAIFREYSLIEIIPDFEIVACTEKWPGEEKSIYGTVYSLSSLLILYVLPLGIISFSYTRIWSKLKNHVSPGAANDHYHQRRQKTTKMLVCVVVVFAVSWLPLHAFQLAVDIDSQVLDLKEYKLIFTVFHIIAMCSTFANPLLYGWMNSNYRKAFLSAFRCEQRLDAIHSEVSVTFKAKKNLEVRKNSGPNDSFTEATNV

| Binder | EC50 CreLuc hGLP1R 0.5% hP [1] | EC50 CreLuc hGLP1R 100% hP [1] | EC50 CreLuc hGIPR 0.5% hP [2] | EC50 CreLuc hGIPR 100% hP [2] | EC50 CreLuc hNPY2R 0.5% hP [3] | EC50 CreLuc hNPY2R 100% hP [3] |
| --- | --- | --- | --- | --- | --- | --- |
| YXEGTFTSDYSIXLEKQAQXEFVQWLIKGGPSEGASLRHYYNWLTRQRY (Aib at 2, 13, 20; K28 side chain: C18DA-gGlu-gGlu-gGlu-gGlu-gGlu; C-terminal NH2) [Compound 141] | 0.25 nM | 7.93 nM | 0.4 nM | 1.32 nM | 11.8 nM | 35.2 nM |
| YXEGTFTSDYSIXLEKQAQXAFVQWLIKGGPSEPASLRHYYNWLTRQRY (Aib at 2, 13, 20; K28 side chain: C18DA-gGlu-gGlu-gGlu-gGlu-gGlu-OEG-OEG; C-terminal NH2) [Compound 142] | 0.12 nM | 3.34 nM | 0.28 nM | 1.15 nM | 12.9 nM | 28.2 nM |
| YXEGTFTSDYSIXLEKQAQXAFVQWLIKGGPEEGASLRHYYNWLTRQRY (Aib at 2, 13, 20; K28 side chain: C18DA-gGlu-gGlu-gGlu-gGlu-gGlu-gGlu-eLys; C-terminal NH2) [Compound 149] | 0.15 nM | 4.76 nM | 0.58 nM | 0.79 nM | 18.6 nM | 40.3 nM |
| YXEGTFTSDYSIXLEKQAQXEFVQWLIKGGPSEGASLRHYYNWLTRQRY (Aib at 2, 13, 20; K28 side chain: C18DA-gGlu-gGlu-gGlu-gGlu-gGlu-gGlu-eLys; C-terminal NH2) [Compound 153] | 0.25 nM | 6.12 nM | 0.22 nM | 1.21 nM | 18.9 nM | 58.5 nM |
| Y[Aib]EGTFTSDYSI[Aib]LEKQAQ[Aib]AFVQWLIK([AEEA-AEEA-γGlu-γGlu-γGlu-C18 diacid])GGPEEGASLRHYYNWLTRQRY-NH2 [Compound 144] | 0.16 nM | 5.59 nM | 1.15 nM | 0.79 nM | 15.8 nM | 48.7 nM |
| Y[Aib]EGTFTSDYSI[Aib]LEKQAQ[Aib]AFVQWLIK([εLys-γGlu-γGlu-γGlu-γGlu-γGlu-C18 diacid])GGPSEPASLRHYYNWLTRQRY-NH2 [Compound 148] | 0.08 nM | 1.46 nM | 0.07 nM | 0.47 nM | 11 nM | 21.1 nM |
| Y[Aib]EGTFTSDYSI[Aib]LEKQAQ[Aib]EFVEWLIK([AEEA-AEEA-γGlu-γGlu-γGlu-γGlu-C18 diacid])GGPSSGASLRHYYNWLTRQRY-NH2 [Compound 145] | 0.31 nM | 7.29 nM | 0.28 nM | 1.23 nM | 11.9 nM | 31.8 nM |
| Y[Aib]EGTFTSDYSI[Aib]LEKQAQ[Aib]EFVQWLIK([γGlu-γGlu-γGlu-γGlu-γGlu-γGlu-C18 diacid])GGPSEGASLRHYYNWLTRQRY-NH2 [Compound 151] | 0.26 nM | 4.39 nM | 0.91 nM | 1.28 nM | 18.9 nM | 42.3 nM |
| Y[Aib]EGTFTSDYSI[Aib]LEKQAQ[Aib]AFVQWLIK([AEEA-AEEA-γGlu-γGlu-γGlu-γGlu-C18 diacid])GGPEEGASLRHYYNWLTRQRY-NH2 [Compound 146] | 0.14 nM | 4.27 nM | 0.77 nM | 0.73 nM | 14 nM | 38.8 nM |
| Y[Aib]EGTFTSDYSI[Aib]LEKQAE[Aib]AFVEWLIK([AEEA-AEEA-γGlu-γGlu-γGlu-γGlu-C18 diacid])GGPSSGASLRHYYNWLTRQRY-NH2 [Compound 150] | 0.31 nM | 8.35 nM | 0.27 nM | 1.65 nM | 16.7 nM | 62.7 nM |
| Y[Aib]EGTFTSDYSI[Aib]LEKQAQ[Aib]AFVEWLIK([εLys-γGlu-γGlu-γGlu-γGlu-γGlu-C18 diacid])GGPESGASLRHYYNWLTRQRY-NH2 [Compound 152] | 0.13 nM | 4.24 nM | 0.4 nM | 0.96 nM | 12.6 nM | 39.1 nM |
| Y[Aib]EGTFTSDYSI[Aib]LEKQAQ[Aib]AFVQWLIK([εLys-γGlu-γGlu-γGlu-γGlu-γGlu-C18 diacid])GGPEEGASLRHYYNWLTRQRY-NH2 [Compound 143] | 0.13 nM | 4.24 nM | 0.22 nM | 0.67 nM | 13.1 nM | 42.2 nM |
| Y[Aib]EGTFTSDYSI[Aib]LEKQAQ[Aib]AFVQWLIKGGPSSGASLRHYYNWLTRQRY-NH2 (not fully specified (residue 28)) [Compound 147] | 0.08 nM | 1.54 nM | 0.19 nM | 1.6 nM | 23.3 nM | 65.6 nM |
| Y[Aib]EGTFTSDYSI[Aib]LEKQAQ[Aib]EFVQWLIK([εLys-γGlu-γGlu-γGlu-γGlu-γGlu-C18 diacid])GGPSEGASLRHYYNWLTRQRY-NH2 [Compound 154] | 0.26 nM | 6.65 nM | 0.4 nM | 1.07 nM | 10.7 nM | 21.6 nM |
